In article PMC5605233, “Crystal structure of the N-terminal domain of human Timeless and its interaction with Tipin” (Nucleic Acids Research, 2017):

Experiments:
[1] = biological target: human Tipin, N-terminal 10xHis tag, co-expressed with Timeless (human) (UniProt Q9BVW5); assay: native MS + SEC-MALS; purified Timeless-Tipin complex; nanoESI-MS in 0.20 M ammonium acetate pH 7.0, 5-10 μM; SEC-MALLS
[2] = biological target: the molecule itself; assay: SEC-MALS; Superdex 200 Increase 10/300, 25°C, 1-2 mg/ml (100 μl injection), 25 mM Hepes 7.2, 150 mM KCl, 50 mM Arginine, 50 mM Glutamate

human Tipin, N-terminal 10xHis tag, co-expressed with Timeless (human), sequence (Q9BVW5 whole entry): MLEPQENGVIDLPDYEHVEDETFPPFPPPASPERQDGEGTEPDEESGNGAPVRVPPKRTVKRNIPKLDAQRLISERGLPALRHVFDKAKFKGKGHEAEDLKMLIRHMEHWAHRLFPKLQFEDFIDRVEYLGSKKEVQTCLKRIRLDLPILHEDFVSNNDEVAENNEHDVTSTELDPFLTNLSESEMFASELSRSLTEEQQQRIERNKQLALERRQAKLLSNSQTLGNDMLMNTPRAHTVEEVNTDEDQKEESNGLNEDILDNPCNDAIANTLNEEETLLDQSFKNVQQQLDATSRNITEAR

## human Timeless, full-length, N-terminal twin-strep tag, co-expressed with Tipin (from UniProt Q9UNS1 1-1208) (natural protein)
[1]
  stoichiometry N (Timeless:Tipin): 1

B1: TimN(Δ239-330): Timeless 1-463 with residues 239-330 replaced by the linker GSTGST (domain or fragment, human)
chain: MDLHMMNCELLATCSALGYLEGDTYHKEPDCLESVKDLIRYLRHEDETRDVRQQLGAAQILQSDLLPILTQHHQDKPLFDAVIRLMVNLTQPALLCFGNLPKEPSFRHHFLQVLTYLQAYKEAFASEKAFGVLSETLYELLQLGWEERQEEDNLLIERILLLVRNILHVPADLDQEKKIDDDASAHDQLLWAIHLSGLDDLLLFLASSSAEEQWSLHVLEIVSLMFRDQNPEQLAGVGGSTGSTQRRSALNVRLFLRDFCSEFLENCYNRLMGSVKDHLLREKAQQHDETYYMWALAFFMAFNRAASFRPGLVSETLSVRTFHFIEQNLTNYYEMMLTDRKEAASWARRMHLALKAYQELLATVNEMDISPDEAVRE
notes: human Timeless, residues 1-238; 6-residue linker in place of residues 239-330; human Timeless, residues 331-463; Dimer in solution and in the crystal; the authors think the dimer is likely an artifact of construct design; also called Timeless(1-463_(Δ239-330)); source: E. coli Rosetta2(DE3), purified (Ni-NTA, HiTrap Q, SEC)
[2]
  stoichiometry N: 2
